Laboratory results from patent US9433687B2, “Anti-Notch3 antibodies and antibody-drug conjugates” (Pfizer Inc., priority 2012, dated 2016).

T1: human Notch2 NRR-Fc (Homo sapiens, UniProt Q04721)
T1 construct: Expression constructs encoding human Notch1 and Notch2 NRR regions, fused with human IgG1 Fc fragments; made in house; host or cells: CHO-PACE cells
T1 sequence (Q04721 1425-1677 limits assumed): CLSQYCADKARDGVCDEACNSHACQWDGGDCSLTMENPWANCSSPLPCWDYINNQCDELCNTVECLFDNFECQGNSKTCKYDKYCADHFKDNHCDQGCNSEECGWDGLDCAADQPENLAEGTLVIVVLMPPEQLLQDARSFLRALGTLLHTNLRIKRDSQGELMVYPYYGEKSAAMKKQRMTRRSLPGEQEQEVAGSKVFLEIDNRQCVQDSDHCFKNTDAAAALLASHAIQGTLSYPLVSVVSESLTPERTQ

T2: human Notch1 NRR-Fc (Homo sapiens, UniProt P46531)
T2 construct: Expression constructs encoding human Notch1 and Notch2 NRR regions, fused with human IgG1 Fc fragments; made in house; host or cells: CHO-PACE cells
T2 sequence (P46531 1446-1733 limits assumed): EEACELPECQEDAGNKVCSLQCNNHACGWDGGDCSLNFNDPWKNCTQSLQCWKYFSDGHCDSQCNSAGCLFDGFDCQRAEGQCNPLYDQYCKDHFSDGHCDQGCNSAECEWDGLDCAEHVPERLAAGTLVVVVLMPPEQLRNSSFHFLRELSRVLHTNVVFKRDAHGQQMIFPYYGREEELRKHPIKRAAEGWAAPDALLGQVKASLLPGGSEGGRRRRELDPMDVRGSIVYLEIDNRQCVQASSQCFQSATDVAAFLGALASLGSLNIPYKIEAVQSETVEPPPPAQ

T3: human Notch3 NRR recombinant protein (Homo sapiens, UniProt Q9UM47)
T3 construct: made in house
T3 sequence (Q9UM47 with tags, fused parts or gaps): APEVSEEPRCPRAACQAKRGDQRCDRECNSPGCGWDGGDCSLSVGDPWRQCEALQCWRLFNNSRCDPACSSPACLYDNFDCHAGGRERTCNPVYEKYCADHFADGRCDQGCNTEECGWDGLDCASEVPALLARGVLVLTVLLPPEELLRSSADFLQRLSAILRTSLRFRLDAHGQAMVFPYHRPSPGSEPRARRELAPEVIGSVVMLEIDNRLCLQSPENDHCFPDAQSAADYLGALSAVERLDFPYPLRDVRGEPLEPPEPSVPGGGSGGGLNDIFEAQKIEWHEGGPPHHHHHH


Columns and labels:
human Notch2 NRR-Fc = biological target: T1, human Notch2 NRR-Fc; assay: Binding to Notch2 NRR-Fc; settings: N/B = non-binding
Excerpt: (§1) Other members of the Notch receptor family play important roles in biological processes. For example, a Notch1 or Notch2 deficiency leads to embryonic death in mouse models. In contrast, a Notch4 deficiency results in no detectable phenotype in mouse models. The closest homologues of the Notch3 NRR region are Notch1 and Notch2 (˜50% homology), and Notch4 is a more distant homologue (˜30% homology). Cross-reactivity of anti-Notch3 antibodies to other members of the Notch family, especially Notch1 and 2, may lead to undesired effects in patients. Therefore, the potential cross-reactivity of r28 and hu28, along with r75 and hu75 to other Notch family members were assessed.
(§2) Expression constructs encoding human Notch1 and Notch2 NRR regions, fused with human IgG1 Fc fragments were stably introduced into CHO-PACE cells. Conditioned media from these cells expressing NRR-Fc fusions were collected. Human Notch2 NRR-Fc and human Notch1 NRR-Fc were purified by protein A affinity followed by size exclusion chromatography (SEC). Purified preparations were dialysed into TBS with 1 mM CaCl2 and analyzed on analytical SEC to be >99% in purity.

[1] = Thermal stability by differential scanning calorimetry (DSC); format: physicochemical; settings: 0.3 mg/ml in PBS
Description: There is a positive correlation between the thermal stability of a protein or protein domain with the overall stability of the protein or protein domain. A higher melting point of a protein or protein domain often provides improved manufacturability and longer shelf life. Differential scanning calorimetry (DSC) was used to assess the thermal stability of hu28 and hu75 versus ch28 and ch75, respectively. Protein samples were diluted in PBS to 0.3 mg/ml in a volume of 250 μl. The corresponding formulation buffer blank was used for the reference sample. Both samples were thoroughly degassed using a MicroCal ThermoVac Sample Degassing and Thermostat (Microcal, Inc., Northampton, Mass.) set to 8° C. Samples were dispensed into the appropriate cells of a MicroCal VP-DSC Capillary Cell MicroCalorimter (MicroCal, Inc., Northampton, Mass.). Samples were equilibrated for 4 minutes at 15° C. and then scanned up to 100° C. at a rate of 100° C. per hour. A filtering period of 20 seconds was selected. Raw data was baseline corrected and the protein concentration was normalized. Origin Software (OriginLab Corporation, Northampton, Mass.) was used to fit the data to an MN2-State Model with an appropriate number of transitions.

human Notch1 NRR-Fc = biological target: T2, human Notch1 NRR-Fc; assay: Binding to Notch1 NRR-Fc; settings: N/B = non-binding
Excerpt: as §1, §2

[2] = biological target: T3, human Notch3 NRR recombinant protein; assay: Surface plasmon resonance (Biacore) kinetic analysis; format: binding; settings: antibody captured; 1:1 Langmuir model
Description: The kinetic constants of the anti-Notch3 NRR interactions were determined by surface plasmon resonance (Biacore® T100, Biacore Inc., Piscataway, N.J.). Flow cells of a CM5 chip were immobilized with approximately 10,000 response units (RU) of anti-human IgG-Fc (Biacore®) in 10 mM Glycine, pH 5.0 at 10 μl/min for 600 seconds. 10 μg/ml of anti-Notch3 antibodies ch28 and hu28, and ch75 and hu75 were diluted in TBS with 1 mM CaCl2 were captured at 10 μl/min. Association of four concentrations of human Notch3 NRR recombinant protein (from 3.7-100 nM) and a zero concentration (running buffer) at 100 μl/min were recorded for 3 minutes in TBS with 1 mM CaCl2. Dissociation of the complexes was measured for 10 minutes. The surface of the chip was regenerated by injecting 3M MgCl2 with 3 mM EGTA for 60 seconds at 10 μl/min. Curves obtained after subtraction of the reference and buffer signals were fitted to a 1:1 Langmuir binding model with Biacore® T100 Evaluation Software (Biacore®).

HCC2429 (lung cancer) = assay: In vitro cytotoxicity (MTS), HCC2429; format: cell-based, human; settings: Table 13; four days; LP = lacked potency
Description: (§3) The effects of anti-Notch3 ADCs were assessed on 1) cell lines endogenously expressing Notch3 protein: HCC2429 (lung cancer), OVCAR3 (ovarian cancer) and MDA-MB-468 (breast cancer), 2) cell lines engineered to over-express full length human Notch3 protein: MDA-MB-468/hNotch3 and U2OS/hNotch3, and 3) a negative control cell line (SW900) using an MTS cellular viability indicator (Promega, Madison, Wis.). These cell lines were cultured with increasing concentrations of anti-Notch3 ADCs comprising rat-human chimeric anti-Notch3 antibodies, ch28 and ch75, and humanized anti-Notch3 antibodies, hu28 and hu75, conjugated to various linker-payload combinations of the present invention. As a specificity control for the anti-Notch3-ADCs, non-targeted control-ADCs (huNeg8.8-ADCs or ch2H6-ADCs) were also tested on the same cell lines. After four days, viability of each culture was assessed. IC50 values were calculated by logistic non-linear regression, model #203 with XL fit v4.2 (IDBS, Guildford, Surry, UK) and presented as ng Ab/mL. The drug antibody ratio (DAR) is also provided.
(§4) This process generated the anti-Notch3 cysteine mutant ADCs: hu28-(L443C)-vc0101 and hu28-(L443C/κK183C)-vc0101. The activity of the anti-Notch3 cysteine mutant ADCs were assessed on cell lines endogenously expressing Notch3 protein: HCC2429 (lung cancer) and OVCAR3 (ovarian cancer) using an MTS cellular viability indicator as described in previous Examples.

[3] = system: MDA-MB-468 (breast cancer); assay: In vitro cytotoxicity (MTS), MDA-MB-468; format: cell-based, human; settings: Table 13; four days; LP = lacked potency
Description: as §3

MDA-MB-468/hNotch3 = biological target: T4, MDA-MB-468/hNotch3 (Homo sapiens, UniProt Q9UM47); assay: In vitro cytotoxicity (MTS), MDA-MB-468/hNotch3; format: cell-based; settings: Table 13; four days; LP = lacked potency
T4 construct: cell lines engineered to over-express full length human Notch3 protein: MDA-MB-468/hNotch3 and U2OS/hNotch3; expressed in transfected cells; host or cells: MDA-MB-468
Description: as §3

OVCAR3 (ovarian cancer) = assay: In vitro cytotoxicity (MTS), OVCAR3; format: cell-based, human; settings: Table 13; four days; LP = lacked potency
Description: as §3, §4

T4 sequence (Q9UM47 40-2321): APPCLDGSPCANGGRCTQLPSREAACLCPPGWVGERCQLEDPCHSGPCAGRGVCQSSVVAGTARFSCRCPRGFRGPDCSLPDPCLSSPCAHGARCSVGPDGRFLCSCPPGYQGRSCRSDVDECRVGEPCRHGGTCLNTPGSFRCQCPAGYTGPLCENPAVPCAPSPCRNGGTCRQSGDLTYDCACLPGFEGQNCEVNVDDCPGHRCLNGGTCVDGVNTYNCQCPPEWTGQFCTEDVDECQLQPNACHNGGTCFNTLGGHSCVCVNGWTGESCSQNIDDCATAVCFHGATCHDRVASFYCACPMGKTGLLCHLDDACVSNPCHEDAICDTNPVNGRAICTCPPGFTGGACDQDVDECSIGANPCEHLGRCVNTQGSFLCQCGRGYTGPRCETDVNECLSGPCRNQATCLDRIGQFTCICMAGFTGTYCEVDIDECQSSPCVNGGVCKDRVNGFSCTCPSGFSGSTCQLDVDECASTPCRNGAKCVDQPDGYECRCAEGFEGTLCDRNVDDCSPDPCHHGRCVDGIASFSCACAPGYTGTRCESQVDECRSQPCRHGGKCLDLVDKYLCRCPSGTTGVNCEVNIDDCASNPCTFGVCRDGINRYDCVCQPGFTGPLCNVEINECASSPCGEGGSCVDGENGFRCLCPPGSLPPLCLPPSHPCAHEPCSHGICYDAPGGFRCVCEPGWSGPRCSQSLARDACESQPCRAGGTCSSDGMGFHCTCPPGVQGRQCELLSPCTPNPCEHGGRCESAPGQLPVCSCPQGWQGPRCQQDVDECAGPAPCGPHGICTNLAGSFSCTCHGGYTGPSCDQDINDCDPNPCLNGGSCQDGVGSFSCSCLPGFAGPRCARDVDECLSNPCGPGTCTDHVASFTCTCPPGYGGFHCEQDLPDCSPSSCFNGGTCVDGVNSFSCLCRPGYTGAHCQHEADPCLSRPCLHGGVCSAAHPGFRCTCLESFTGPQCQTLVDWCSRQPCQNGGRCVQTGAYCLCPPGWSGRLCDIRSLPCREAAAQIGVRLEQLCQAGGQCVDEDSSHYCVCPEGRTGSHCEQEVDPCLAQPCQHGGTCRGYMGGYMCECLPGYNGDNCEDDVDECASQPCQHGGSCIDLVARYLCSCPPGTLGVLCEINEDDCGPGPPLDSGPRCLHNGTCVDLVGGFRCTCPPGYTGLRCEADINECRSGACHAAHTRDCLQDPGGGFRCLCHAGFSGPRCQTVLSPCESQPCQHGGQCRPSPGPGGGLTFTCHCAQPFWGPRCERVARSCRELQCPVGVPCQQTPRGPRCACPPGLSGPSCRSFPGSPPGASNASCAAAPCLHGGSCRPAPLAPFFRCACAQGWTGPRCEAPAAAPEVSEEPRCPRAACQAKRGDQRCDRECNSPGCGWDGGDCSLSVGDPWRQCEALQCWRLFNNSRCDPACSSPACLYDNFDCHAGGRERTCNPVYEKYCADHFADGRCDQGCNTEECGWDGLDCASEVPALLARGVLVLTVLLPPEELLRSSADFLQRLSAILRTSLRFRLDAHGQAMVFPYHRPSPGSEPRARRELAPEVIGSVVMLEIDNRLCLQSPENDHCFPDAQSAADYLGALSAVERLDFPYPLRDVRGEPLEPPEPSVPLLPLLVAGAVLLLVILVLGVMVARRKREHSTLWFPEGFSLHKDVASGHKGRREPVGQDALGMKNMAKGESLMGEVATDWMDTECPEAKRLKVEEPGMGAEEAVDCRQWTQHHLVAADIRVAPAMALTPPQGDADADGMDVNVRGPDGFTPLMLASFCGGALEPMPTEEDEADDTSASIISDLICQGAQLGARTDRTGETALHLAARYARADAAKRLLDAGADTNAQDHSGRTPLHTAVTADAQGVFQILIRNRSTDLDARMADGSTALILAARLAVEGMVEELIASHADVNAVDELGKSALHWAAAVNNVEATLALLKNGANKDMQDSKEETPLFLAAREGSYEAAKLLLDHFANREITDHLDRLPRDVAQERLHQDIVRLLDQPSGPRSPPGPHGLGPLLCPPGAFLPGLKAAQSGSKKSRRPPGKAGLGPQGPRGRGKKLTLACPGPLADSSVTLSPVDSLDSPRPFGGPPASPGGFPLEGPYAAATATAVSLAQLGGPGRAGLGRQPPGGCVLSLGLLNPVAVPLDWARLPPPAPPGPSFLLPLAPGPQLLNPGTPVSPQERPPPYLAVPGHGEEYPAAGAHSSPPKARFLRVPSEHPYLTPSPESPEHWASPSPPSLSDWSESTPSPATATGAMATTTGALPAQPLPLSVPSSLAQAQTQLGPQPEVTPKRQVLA

| Molecule | Binding to Notch2 NRR-Fc (human Notch2 NRR-Fc) | IC50 (ng Ab/mL) ± S.E.M., HCC2429 (HCC2429 (lung cancer)) [ng Ab/mL] | IC50 (ng Ab/mL) ± S.E.M., MDA-MB-468 [3] [ng Ab/mL] | IC50 (ng Ab/mL) ± S.E.M., MDA-MB-468/hNotch3 (MDA-MB-468/hNotch3) [ng Ab/mL] | further results |
| --- | --- | --- | --- | --- | --- |
| r28: parental rat anti-Notch3 antibody clone 28 (VH SEQ ID NO: 5, VL SEQ ID NO: 7) (antibody, V domains shown) VH: EVQLVESGGGLVQPGRSLTLSCVASGFTFRDYGMTWIRQAPGKGLTWVAYISSGSNYIYYAEAVKGRFTISRDNAKNTLYLQMTSLRSEDTALYFCTRRGPFVLDAWGQGASVTVSS VL: DIQMTQSPSFLSASVGDRVTINCKASQSINRYLHWFQQKLGEAPKLLIYNANGLQTGIPSRFSGSGSGTDFTLTISSLQSEDVATYFCLQHNTWPDTFGAGTKLELK | lacked detectable binding |  |  |  |  |
| ch28: rat-human chimeric anti-Notch3 antibody 28, rat variable regions fused with human IgG1 and human kappa (antibody, V domains shown) VH: EVQLVESGGGLVQPGRSLTLSCVASGFTFRDYGMTWIRQAPGKGLTWVAYISSGSNYIYYAEAVKGRFTISRDNAKNTLYLQMTSLRSEDTALYFCTRRGPFVLDAWGQGASVTVSS VL: DIQMTQSPSFLSASVGDRVTINCKASQSINRYLHWFQQKLGEAPKLLIYNANGLQTGIPSRFSGSGSGTDFTLTISSLQSEDVATYFCLQHNTWPDTFGAGTKLELK | N/B |  |  |  | Tm ± Standard Deviation, CH2 [1]: 70.20 ± 0.05 °C; Tm ± Standard Deviation, CH3 [1]: 84.24 ± 0.07 °C; Tm ± Standard Deviation, Fab [1]: 73.22 ± 0.73 °C; Binding to Notch1 NRR-Fc (human Notch1 NRR-Fc): N/B; ka [2]: 409000 M⁻¹ s⁻¹; kd [2]: 0.000249 s⁻¹ |
| r75: parental rat anti-Notch3 antibody clone 75 (VH SEQ ID NO: 9, VL SEQ ID NO: 11) (antibody, V domains shown) VH: QVKLLQSGAALVKPGASVKMSCKASGYAFTDYWVTWVKQSHGKSLEWIGEISPNSGGTNFNEKFKGKATLTVDKSTSTAYMELSRLTSEDSAIYYCTRGEIRYNWFAYWGQGTLVTVSS VL: DIQMTQSPSSLSASVGDRVTITCKASQNVGNNIAWYQQKPGKAPKLLIYYASNRYTGVPSRFSGSGYGTDFTLTISSLQPEDFATYYCQRLYNSPFTFGGGTKVEIK | lacked detectable binding |  |  |  |  |
| ch75-vc0101: ch75 conjugated to vc0101 linker-payload (conjugate) VH: QVKLLQSGAALVKPGASVKMSCKASGYAFTDYWVTWVKQSHGKSLEWIGEISPNSGGTNFNEKFKGKATLTVDKSTSTAYMELSRLTSEDSAIYYCTRGEIRYNWFAYWGQGTLVTVSS VL: DIQMTQSPSSLSASVGDRVTITCKASQNVGNNIAWYQQKPGKAPKLLIYYASNRYTGVPSRFSGSGYGTDFTLTISSLQPEDFATYYCQRLYNSPFTFGGGTKVEIK |  | 2112 ± 826.0 | 4064 ± 1793.9 | 24 ± 4.0 |  |
| ch75-vc6780 (conjugate) VH: QVKLLQSGAALVKPGASVKMSCKASGYAFTDYWVTWVKQSHGKSLEWIGEISPNSGGTNFNEKFKGKATLTVDKSTSTAYMELSRLTSEDSAIYYCTRGEIRYNWFAYWGQGTLVTVSS VL: DIQMTQSPSSLSASVGDRVTITCKASQNVGNNIAWYQQKPGKAPKLLIYYASNRYTGVPSRFSGSGYGTDFTLTISSLQPEDFATYYCQRLYNSPFTFGGGTKVEIK |  | 1004 ± 177.0 | 6873 ± 4230.0 | 21 ± 3.5 | IC50 (ng Ab/mL) ± S.E.M., OVCAR3 (OVCAR3 (ovarian cancer)): 922 ng Ab/mL |
